{
  "source": "patent US20190241648A1",
  "about": "(STATEN BIOTECHNOLOGY B V, published 2019)",
  "binders": {"B1": {"name": "anti-ApoC3 antibody 6A6 (antibody, V domains shown)", "VH": "EVQLVESGGGLVQPGGSLRLSCAASGFTFSSYAGRWVRQVPGKGLEWVSSINAGGGSTSYADSVKGRFTISRDNAKNTLYLQMNSLKPEDTAKYYCTQNSYRYWGQGTRVAVSS", "VL": "DVVLTQTPGSLSVVPGESASISCKASQSLIHTDGKTYLYWLLQKPGQRPQLLIYQVSSHESGVPDRFTGSGSGTDFTLKISGVKAEDAGVYYCAQATYNPRTFGQGTKLEIK", "notes": "it was detected with goat anti-human IgG (Fc); also called mAb 6A6; llama antibody 6A6"}},
  "assay_in_all_cases": "peptide microarray",
  "key": {"ApoC3 peptide … D68C": {"molecular_target": "T1, ApoC3 peptide … D68C (human, not fully specified (bridges); also: cyclic constrained)", "T1 peptide": "DKFSEFWDLCPEV", "method_in_brief": "(§1)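 ApoC3 peptide microarrays incubated with antibody samples and then stained with goat anti-human IgG (Fc) DyLight680 plus anti-HA DyLight800 control antibody. Scanned at intensity 7/7 (red/green); a secondary-only prestain checked for background, and framing HA peptides served as quality control.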"}, "ApoC3 peptide … E63D": {"molecular_target": "ApoC3 peptide … E63D (human, cyclic constrained)", "method_in_brief": "as §1"}, "ApoC3 peptide … F61E": {"molecular_target": "T2, ApoC3 peptide … F61E (human, cyclic constrained)", "T2 peptide": "DKESEFWDLDPEV", "method_in_brief": "as §1"}, "ApoC3 peptide … D59F": {"molecular_target": "T3, ApoC3 peptide … D59F (human, not fully specified (bridges); also: cyclic constrained)", "T3 peptide": "FKFSEFWDLDPEV", "method_in_brief": "as §1"}, "ApoC3 peptide … E63F": {"molecular_target": "ApoC3 peptide … E63F (human, cyclic constrained)", "method_in_brief": "as §1"}, "ApoC3 peptide … W65G": {"molecular_target": "T4, ApoC3 peptide … W65G (human, not fully specified (bridges); also: cyclic constrained, ring type and places not given here)", "T4 peptide": "DKFSEFGDLDPEV", "method_in_brief": "as §1"}, "ApoC3 peptide … E63H": {"molecular_target": "ApoC3 peptide … E63H (human, cyclic constrained)", "method_in_brief": "as §1"}, "ApoC3 peptide … D59K": {"molecular_target": "T5, ApoC3 peptide … D59K (human, cyclic constrained)", "T5 peptide": "KKFSEFWDLDPEV", "method_in_brief": "as §1"}, "ApoC3 peptide … F64K": {"molecular_target": "T6, ApoC3 peptide … F64K (human, not fully specified (bridges); also: cyclic constrained)", "T6 peptide": "DKFSEKWDLDPEV", "method_in_brief": "as §1"}, "ApoC3 peptide … V71K": {"molecular_target": "ApoC3 peptide … V71K (human, cyclic constrained)", "method_in_brief": "as §1"}, "ApoC3 peptide … D59L": {"molecular_target": "T7, ApoC3 peptide … D59L (human, cyclic constrained)", "T7 peptide": "LKFSEFWDLDPEV", "method_in_brief": "as §1"}, "ApoC3 peptide … K60L": {"molecular_target": "T8, ApoC3 peptide … K60L (human, not fully specified (bridges); also: cyclic constrained)", "T8 peptide": "DLFSEFWDLDPEV", "method_in_brief": "as §1"}, "ApoC3 peptide … F61L": {"molecular_target": "T9, ApoC3 peptide … F61L (human, not fully specified (bridges); also: cyclic constrained)", "T9 peptide": "DKLSEFWDLDPEV", "method_in_brief": "as §1"}, "ApoC3 peptide … D66L": {"molecular_target": "T10, ApoC3 peptide … D66L (human, not fully specified (bridges); also: cyclic constrained)", "T10 peptide": "DKFSEFWLLDPEV", "method_in_brief": "as §1"}, "ApoC3 peptide … V71L": {"molecular_target": "ApoC3 peptide … V71L (human, cyclic constrained)", "method_in_brief": "as §1"}, "ApoC3 peptide … D59M": {"molecular_target": "T11, ApoC3 peptide … D59M (human, cyclic constrained)", "T11 peptide": "MKFSEFWDLDPEV", "method_in_brief": "as §1"}, "ApoC3 peptide … K60M": {"molecular_target": "T12, ApoC3 peptide … K60M (human, not fully specified (bridges); also: cyclic constrained)", "T12 peptide": "DMFSEFWDLDPEV", "method_in_brief": "as §1"}, "ApoC3 peptide … F61N": {"molecular_target": "T13, ApoC3 peptide … F61N (human, not fully specified (bridges); also: cyclic constrained)", "T13 peptide": "DKNSEFWDLDPEV", "method_in_brief": "as §1"}, "ApoC3 peptide … E70P": {"molecular_target": "T14, ApoC3 peptide … E70P (human, not fully specified (bridges); also: cyclic constrained)", "T14 peptide": "DKFSEFWDLDPPV", "method_in_brief": "as §1"}, "ApoC3 peptide … F64Q": {"molecular_target": "T15, ApoC3 peptide … F64Q (human, not fully specified (bridges); also: cyclic constrained)", "T15 peptide": "DKFSEQWDLDPEV", "method_in_brief": "as §1"}, "ApoC3 peptide … D66Q": {"molecular_target": "T16, ApoC3 peptide … D66Q (human, not fully specified (bridges); also: cyclic constrained)", "T16 peptide": "DKFSEFWQLDPEV", "method_in_brief": "as §1"}, "ApoC3 peptide … D68R": {"molecular_target": "T17, ApoC3 peptide … D68R (human, cyclic constrained)", "T17 peptide": "DKFSEFWDLRPEV", "method_in_brief": "as §1"}, "ApoC3 peptide … V71R": {"molecular_target": "ApoC3 peptide … V71R (human, cyclic constrained)", "method_in_brief": "as §1"}, "ApoC3 peptide … E63S": {"molecular_target": "ApoC3 peptide … E63S (human, cyclic constrained)", "method_in_brief": "as §1"}, "ApoC3 peptide … D68S": {"molecular_target": "T18, ApoC3 peptide … D68S (human, not fully specified; cyclic constrained)", "T18 peptide": "DKFSEFWDLSPEV", "method_in_brief": "as §1"}, "ApoC3 peptide … K60T": {"molecular_target": "T19, ApoC3 peptide … K60T (human, not fully specified (bridges); also: cyclic constrained)", "T19 peptide": "DTFSEFWDLDPEV", "method_in_brief": "as §1"}, "ApoC3 peptide … D68T": {"molecular_target": "ApoC3 peptide … D68T (human, cyclic constrained)", "method_in_brief": "as §1"}, "ApoC3 peptide … P69T": {"molecular_target": "ApoC3 peptide … P69T (human, cyclic constrained)", "method_in_brief": "as §1"}, "ApoC3 peptide … S62V": {"molecular_target": "ApoC3 peptide … S62V (human, cyclic constrained)", "method_in_brief": "as §1"}, "ApoC3 peptide … E63V": {"molecular_target": "ApoC3 peptide … E63V (human, cyclic constrained)", "method_in_brief": "as §1"}, "ApoC3 peptide … D68V": {"molecular_target": "ApoC3 peptide … D68V (human, cyclic constrained)", "method_in_brief": "as §1"}, "ApoC3 peptide … D59W": {"molecular_target": "T20, ApoC3 peptide … D59W (human, not fully specified (bridges); also: cyclic constrained)", "T20 peptide": "WKFSEFWDLDPEV", "method_in_brief": "as §1"}, "ApoC3 peptide … F64W": {"molecular_target": "T21, ApoC3 peptide … F64W (human, not fully specified (bridges); also: cyclic constrained)", "T21 peptide": "DKFSEWWDLDPEV", "method_in_brief": "as §1"}, "ApoC3 peptide … P69W": {"molecular_target": "ApoC3 peptide … P69W (human, cyclic constrained)", "method_in_brief": "as §1"}, "ApoC3 peptide … F64Y": {"molecular_target": "T22, ApoC3 peptide … F64Y (human, not fully specified (bridges); also: cyclic constrained)", "T22 peptide": "DKFSEYWDLDPEV", "method_in_brief": "as §1"}, "ApoC3 peptide … W65Y": {"molecular_target": "T23, ApoC3 peptide … W65Y (human, not fully specified (bridges); also: cyclic constrained, ring type and places not given here)", "T23 peptide": "DKFSEFYDLDPEV", "method_in_brief": "as §1"}, "ApoC3 peptide … V71Y": {"molecular_target": "ApoC3 peptide … V71Y (human, cyclic constrained)", "method_in_brief": "as §1"}},
  "note": "Ends that are not written are not given here.",
  "data": [
    {"binder": "B1", "values": [
      {"measurement": "% of binding to wild-type peptide", "setting": "ApoC3 peptide … D68C", "result": 5.29, "unit": "%"},
      {"measurement": "% of binding to wild-type peptide", "setting": "ApoC3 peptide … E63D", "result": 77.9, "unit": "%"},
      {"measurement": "% of binding to wild-type peptide", "setting": "ApoC3 peptide … F61E", "result": 83.9, "unit": "%"},
      {"measurement": "% of binding to wild-type peptide", "setting": "ApoC3 peptide … D59F", "result": 61.5, "unit": "%"},
      {"measurement": "% of binding to wild-type peptide", "setting": "ApoC3 peptide … E63F", "result": 8.5, "unit": "%"},
      {"measurement": "% of binding to wild-type peptide", "setting": "ApoC3 peptide … W65G", "result": 49.5, "unit": "%"},
      {"measurement": "% of binding to wild-type peptide", "setting": "ApoC3 peptide … E63H", "result": 12.3, "unit": "%"},
      {"measurement": "% of binding to wild-type peptide", "setting": "ApoC3 peptide … D59K", "result": 45.6, "unit": "%"},
      {"measurement": "% of binding to wild-type peptide", "setting": "ApoC3 peptide … F64K", "result": 107, "unit": "%"},
      {"measurement": "% of binding to wild-type peptide", "setting": "ApoC3 peptide … V71K", "result": 58.7, "unit": "%"},
      {"measurement": "% of binding to wild-type peptide", "setting": "ApoC3 peptide … D59L", "result": 68.6, "unit": "%"},
      {"measurement": "% of binding to wild-type peptide", "setting": "ApoC3 peptide … K60L", "result": 89.2, "unit": "%"},
      {"measurement": "% of binding to wild-type peptide", "setting": "ApoC3 peptide … F61L", "result": 61.3, "unit": "%"},
      {"measurement": "% of binding to wild-type peptide", "setting": "ApoC3 peptide … D66L", "result": 0, "unit": "%"},
      {"measurement": "% of binding to wild-type peptide", "setting": "ApoC3 peptide … V71L", "result": 78, "unit": "%"},
      {"measurement": "% of binding to wild-type peptide", "setting": "ApoC3 peptide … D59M", "result": 60.2, "unit": "%"},
      {"measurement": "% of binding to wild-type peptide", "setting": "ApoC3 peptide … K60M", "result": 146, "unit": "%"},
      {"measurement": "% of binding to wild-type peptide", "setting": "ApoC3 peptide … F61N", "result": 48.3, "unit": "%"},
      {"measurement": "% of binding to wild-type peptide", "setting": "ApoC3 peptide … E70P", "result": 2.53, "unit": "%"},
      {"measurement": "% of binding to wild-type peptide", "setting": "ApoC3 peptide … F64Q", "result": 133, "unit": "%"},
      {"measurement": "% of binding to wild-type peptide", "setting": "ApoC3 peptide … D66Q", "result": 0, "unit": "%"},
      {"measurement": "% of binding to wild-type peptide", "setting": "ApoC3 peptide … D68R", "result": 0.66, "unit": "%"},
      {"measurement": "% of binding to wild-type peptide", "setting": "ApoC3 peptide … V71R", "result": 47.5, "unit": "%"},
      {"measurement": "% of binding to wild-type peptide", "setting": "ApoC3 peptide … E63S", "result": 35.2, "unit": "%"},
      {"measurement": "% of binding to wild-type peptide", "setting": "ApoC3 peptide … D68S", "result": 0.57, "unit": "%"},
      {"measurement": "% of binding to wild-type peptide", "setting": "ApoC3 peptide … K60T", "result": 149, "unit": "%"},
      {"measurement": "% of binding to wild-type peptide", "setting": "ApoC3 peptide … D68T", "result": 0.69, "unit": "%"},
      {"measurement": "% of binding to wild-type peptide", "setting": "ApoC3 peptide … P69T", "result": 118, "unit": "%"},
      {"measurement": "% of binding to wild-type peptide", "setting": "ApoC3 peptide … S62V", "result": 93.6, "unit": "%"},
      {"measurement": "% of binding to wild-type peptide", "setting": "ApoC3 peptide … E63V", "result": 13, "unit": "%"},
      {"measurement": "% of binding to wild-type peptide", "setting": "ApoC3 peptide … D68V", "result": 0, "unit": "%"},
      {"measurement": "% of binding to wild-type peptide", "setting": "ApoC3 peptide … D59W", "result": 78.1, "unit": "%"},
      {"measurement": "% of binding to wild-type peptide", "setting": "ApoC3 peptide … F64W", "result": 69.5, "unit": "%"},
      {"measurement": "% of binding to wild-type peptide", "setting": "ApoC3 peptide … P69W", "result": 13.7, "unit": "%"},
      {"measurement": "% of binding to wild-type peptide", "setting": "ApoC3 peptide … F64Y", "result": 86.4, "unit": "%"},
      {"measurement": "% of binding to wild-type peptide", "setting": "ApoC3 peptide … W65Y", "result": 26.7, "unit": "%"},
      {"measurement": "% of binding to wild-type peptide", "setting": "ApoC3 peptide … V71Y", "result": 87.3, "unit": "%"}
    ]}
  ]
}
